Where two headings read alike, the source gives them in different places.
Legend:
[1] = biological target: human nerve growth factor (human) (UniProt P01138); experiment: BIAcore SPR, Fab over immobilised human NGF
[2] = biological target: human nerve growth factor (human) (UniProt P01138); experiment: BIAcore SPR, Fab over immobilised human NGF (100 RU)
[3] = biological target: human nerve growth factor (human) (UniProt P01138); experiment: as above; remark: listed apart in the source
[4] = biological target: rat nerve growth factor (rat) (UniProt P25427); experiment: cell-based or functional assay
[5] = biological target: human nerve growth factor (human) (UniProt P01138); experiment: cell-based or functional assay
[6] = biological target: human nerve growth factor (human) (UniProt P01138)

human nerve growth factor (human), sequence (P01138 122-241 limits assumed): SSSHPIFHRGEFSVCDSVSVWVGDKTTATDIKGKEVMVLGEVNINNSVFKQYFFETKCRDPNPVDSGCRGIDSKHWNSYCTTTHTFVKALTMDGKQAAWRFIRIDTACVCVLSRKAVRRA
rat nerve growth factor (rat), sequence (P25427 122-241 limits assumed): as the sequence (P01138 122-241 limits assumed) above, with S3T, I6V, R9M, M37T, D60A, D65E, M92T, G94D, V117A, A120G counted along it

Kd [1]	Kd [2]	koff [2]	kon [2]	koff [3]	Substance	IC50, rat NGF-dependent survival of mouse E13.5 trigeminal neurons (1.5 pM NGF) [4]	IC50, rat NGF-dependent survival of mouse E13.5 trigeminal neurons (15 pM NGF) [4]	IC50, human NGF-dependent survival of mouse E13.5 trigeminal neurons (1.5 pM NGF) [5]	IC50, human NGF-dependent survival of mouse E13.5 trigeminal neurons (15 pM NGF) [5]	NGF-elicited survival of E17/18 trigeminal neurons [5]	IC50 (read off the curve), NGF-dependent survival of E13.5 trigeminal neurons (0.4 ng/ml human NGF, 48 h) [6]
10 nM	3.7 nM	9e-05 s⁻¹	22000 M⁻¹ s⁻¹	8.4e-05 s⁻¹	mouse monoclonal anti-NGF antibody 911 (Fab)	34.6 pM	161 pM	63.5 pM	322 pM	20 nM	
					trkA receptor immunoadhesin (Fc fusion)						0.07 nM

Source: patent US20170088610A1
